In assay [1] the target is growth hormone receptor (GHR) on NIH 3T3-L1 cells (Mus musculus (Mouse)) (UniProt P16882). Kind of assay: radioreceptor competition assay, [125I]-hGH on GHR-expressing NIH 3T3-L1 cell monolayers.
Assay [2] addresses anti-hGH-(SO)10 antibodies (1:10,000 serum dilution). Put plainly: competition ELISA, hGH-(SO)10-coated plates, serum 1:10,000, 100 ug/ml (SO)10 as competitive inhibitor.

Square brackets hold non-standard residues; d marks the D form. Ends that are not written are not given here. Hyp = O=C(O)[C@@H]1C[C@@H](O)CN1

This note sets out measurements from US20140024806A1.

Chain of UniProt P16882 (P16882 25-650 limits assumed, form in doubt): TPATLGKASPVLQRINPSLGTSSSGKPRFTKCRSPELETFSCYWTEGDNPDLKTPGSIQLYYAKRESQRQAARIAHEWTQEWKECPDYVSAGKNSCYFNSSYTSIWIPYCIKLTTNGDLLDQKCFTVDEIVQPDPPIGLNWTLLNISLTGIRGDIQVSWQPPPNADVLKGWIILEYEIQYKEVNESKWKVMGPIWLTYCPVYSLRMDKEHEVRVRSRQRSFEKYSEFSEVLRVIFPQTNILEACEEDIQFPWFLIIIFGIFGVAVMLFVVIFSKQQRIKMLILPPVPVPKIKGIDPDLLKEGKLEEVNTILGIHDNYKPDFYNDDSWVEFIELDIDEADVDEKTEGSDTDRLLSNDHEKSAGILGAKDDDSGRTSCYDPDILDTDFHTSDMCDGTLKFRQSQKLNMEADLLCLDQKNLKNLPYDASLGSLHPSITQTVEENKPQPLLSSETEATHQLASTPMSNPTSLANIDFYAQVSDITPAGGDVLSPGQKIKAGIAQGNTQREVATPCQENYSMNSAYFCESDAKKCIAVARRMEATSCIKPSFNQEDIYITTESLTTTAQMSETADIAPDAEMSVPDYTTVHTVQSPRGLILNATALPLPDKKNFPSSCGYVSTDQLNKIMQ

On to “hGH-(SO)10-EGFP fusion glycoprotein (human growth hormone, (Ser-Hyp)10, enhanced green fluorescent protein) (ligand)”, for which the EC50 in assay [1] was found to be 10 nM.

B1: purified (SO)10 glycomodule (peptide)
peptide: S[Hyp]S[Hyp]S[Hyp]S[Hyp]S[Hyp]S[Hyp]S[Hyp]S[Hyp]S[Hyp]S[Hyp]
modifications: also: O-glycosylated, sites not given here
B1 returned a percent inhibition in assay [2] of 5%.
